The chains are these.
B1: GST–SKIP(1-310) [not stated] / HA–KHC [rat] (parent)
chain 1: MEPGEVKDRILENISLSVKKLQSYFAACEDEIPAIRNHDKVLQRLCEHLDHALLYGLQDLSSGYWVLVVHFTRREAIKQIEVLQHVATNLGRSRAWLYLALNENSLESYLRLFQENLGLLHKYYVKNALVCSHDHLTLFLTLVSGLEFIRFELDLDAPYLDLAPYMPDYYKPQYLLDFEDRLPSSVHGSDSLSLNSFNSVTSTNLEWDDSAIAPSSEDYDFGDVFPAVPSVPSTDWEDGDLTDTVSGPRSTASDLTSSKASTRSPTQRQNPFNEEPAETVSSSDTTPVHTTSQEKEEAQALDPPDACTEL
chain 2: MADPAECSIKVMCRFRPLNEAEILRGDKFIPKFKGEETVVIGQGKPYVFDRVLPPNTTQEQVYNACAKQIVKDVLEGYNGTIFAYGQTSSGKTHTMEGKLHDPQLMGIIPRIAHDIFDHIYSMDENLEFHIKVSYFEIYLDKIRDLLDVSKTNLAVHEDKNRVPYVKGCTERFVSSPEEVMDVIDEGKANRHVAVTNMNEHSSRSHSIFLINIKQENVETEKKLSGKLYLVDLAGSEKVSKTGAEGAVLDEAKNINKSLSALGNVISALAEGTKTHVPYRDSKMTRILQDSLGGNCRTTIVICCSPSVFNEAETKSTLMFGQRAKTIKNTVSVNLELTAEEWKKKYEKEKEKNKALKSVIQHLEVELNRWRNGEAVPEDEQISAKDQKNLEPCDNTPIIDNITPVVDGISAEKEKYDEEITSLYRQLDDKDDEINQQSQLAEKLKQQMLDQDELLASTRRDYEKIQEELTRLQIENEAAKDEVKEVLQALEELAVNYDQKSQEVEDKTRANEQLTDELAQKTTTLTTTQRELSQLQELSNHQKKRATEILNLLLKDLGEIGGIIGTNDVKTLADVNGVIEEEFTMARLYISKMKSEVKSLVNRSKQLESAQTDSNRKMNASERELAACQLLISQHEAKIKSLTDYMQNMEQKRRQLEESQDSLSEELAKLRAQEKMHEVSFQDKEKEHLTRLQDAEEVKKALEQQMESHREAHQKQLSRLRDEIEEKQRIIDEIRDLNQKLQLEQERLSSDYNKLKIEDQEREVKLEKLLLLNDKREQAREDLKGLEETVSRELQTLHNLRKLFVQDLTTRVKKSVELDSDDGGGSAAQKQKISFLENNLEQLTKVHKQLVRDNADLRCELPKLEKRLRATAERVKALESALKEAKENAMRDRKRYQQEVDRIKEAVRAKNMARRAHSAQIAKPIRPGHYPASSPTAVHAVRGGGGSSNSTHYQK

The source of these data is paper PMC5450233.

The variants in the assay derive from B1. Nature of the assay: GST pull-down, immunoblot (IB: HA) quantified. Particulars: with HA–KHC [rat]; lysates of 293T cells co-expressing HA-KHC and HA-KLC2 (kinesin-1 tetramer); three independent experiments; parent: 1; read off a plot. A general note: Immunoblotting shows a protein as a band on a membrane.
For chain 1 D238A G239A D240A, the ratio to parent was 0.98.
With chain 1 E217A D218A Y219A the figure was 0.5; with chain 1 W236A E237A, 0.97.
For the variant chain 1 D220A F221A G222A, the ratio to parent came out at 0.38.
